According to PMC4837482, “The complex binding mode of the peptide hormone H2 relaxin to its receptor RXFP1” (Nature Communications, 2016):

What was measured:
RXFP1 F50A = molecular target: T1, RXFP1 F50A (Homo sapiens, UniProt Q9HBX9, F72A); assay: Eu-H2 relaxin saturation binding assay, transfected HEK293T cells; conditions: F50A RXFP1 versus wild-type RXFP1
T1 construct: expressed in transfected cells; host or cells: HEK293T
T1 sequence (Q9HBX9 23-757 F72A limits assumed): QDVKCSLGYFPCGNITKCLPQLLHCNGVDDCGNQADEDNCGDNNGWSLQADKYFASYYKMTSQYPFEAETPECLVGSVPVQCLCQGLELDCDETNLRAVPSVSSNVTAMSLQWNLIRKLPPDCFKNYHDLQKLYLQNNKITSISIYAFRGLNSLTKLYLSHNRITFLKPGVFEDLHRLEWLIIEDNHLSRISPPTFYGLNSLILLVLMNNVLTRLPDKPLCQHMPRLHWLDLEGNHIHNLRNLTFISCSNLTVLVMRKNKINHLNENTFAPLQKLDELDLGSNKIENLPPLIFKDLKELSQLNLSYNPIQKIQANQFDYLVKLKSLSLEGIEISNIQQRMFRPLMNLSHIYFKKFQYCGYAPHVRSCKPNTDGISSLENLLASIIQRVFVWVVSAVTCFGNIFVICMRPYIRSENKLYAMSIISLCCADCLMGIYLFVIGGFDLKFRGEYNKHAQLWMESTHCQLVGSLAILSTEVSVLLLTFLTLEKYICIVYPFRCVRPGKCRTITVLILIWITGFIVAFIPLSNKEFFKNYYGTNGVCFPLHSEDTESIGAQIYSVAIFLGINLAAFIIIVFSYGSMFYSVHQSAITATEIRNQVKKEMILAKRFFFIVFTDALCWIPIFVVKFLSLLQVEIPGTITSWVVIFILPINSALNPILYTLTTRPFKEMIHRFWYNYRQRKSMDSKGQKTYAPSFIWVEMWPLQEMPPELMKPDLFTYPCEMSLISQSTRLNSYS

RXFP1 C40A^ins = molecular target: T2, RXFP1 C40A^ins (Homo sapiens, UniProt Q9HBX9, INS62A); assay: as above; conditions: C40A^ins full-length RXFP1 versus wild-type RXFP1
T2 construct: cells expressing full-length RXFP1 and mutants; expressed in transfected cells; host or cells: HEK293T
T2 sequence (Q9HBX9 with tags, fused parts or gaps INS62A limits assumed): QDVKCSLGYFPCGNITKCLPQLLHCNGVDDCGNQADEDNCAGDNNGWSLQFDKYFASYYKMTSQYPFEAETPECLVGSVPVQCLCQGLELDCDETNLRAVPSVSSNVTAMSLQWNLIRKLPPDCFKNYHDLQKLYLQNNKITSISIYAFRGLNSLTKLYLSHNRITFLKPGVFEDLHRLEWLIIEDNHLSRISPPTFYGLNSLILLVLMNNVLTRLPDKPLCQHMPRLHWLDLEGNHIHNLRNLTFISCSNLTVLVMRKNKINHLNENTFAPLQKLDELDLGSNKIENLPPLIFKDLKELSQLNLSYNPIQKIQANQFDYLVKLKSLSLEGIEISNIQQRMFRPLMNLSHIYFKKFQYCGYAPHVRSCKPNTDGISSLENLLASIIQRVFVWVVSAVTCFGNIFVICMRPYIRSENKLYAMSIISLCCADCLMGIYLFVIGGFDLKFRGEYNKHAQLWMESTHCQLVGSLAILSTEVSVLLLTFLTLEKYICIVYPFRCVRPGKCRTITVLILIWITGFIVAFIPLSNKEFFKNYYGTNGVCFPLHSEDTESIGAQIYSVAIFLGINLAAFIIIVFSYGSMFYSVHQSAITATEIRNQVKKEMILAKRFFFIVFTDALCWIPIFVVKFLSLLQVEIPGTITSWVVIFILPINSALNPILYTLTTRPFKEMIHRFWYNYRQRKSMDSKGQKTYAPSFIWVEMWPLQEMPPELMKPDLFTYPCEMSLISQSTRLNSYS

RXFP1(1–72) = molecular target: T3, RXFP1(1–72) (Homo sapiens, UniProt Q9HBX9); assay: NMR competition titration against the RXFP1(1–72)/Mn2+-DTPA-(A)-H2 complex; format: binding; conditions: 50 μM peptide added to 50 μM 15N-RXFP1(1–72) with 0.2 μM Mn2+-DTPA-(A)-H2; pH 6.8, 25 °C
T3 construct: GB1 (N, cleaved yes); made in house; host or cells: E. coli BL21 (DE3) trxB
T3 sequence (Q9HBX9 23-94 limits assumed): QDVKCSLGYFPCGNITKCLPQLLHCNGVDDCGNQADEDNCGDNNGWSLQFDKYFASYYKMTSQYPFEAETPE
Description: All RXFP1(1–72) protein samples for nuclear magnetic resonance (NMR) experiments were prepared from lyophilized protein in 50 mM imidazole, with 10 mM CaCl2 at pH 6.8. Recombinant human gene-2 H2 relaxin peptide was kindly provided by Corthera. EL1^(475–486)/EL2-GB1 samples were prepared as described above. Titrant and titrand were dialyzed in the same buffer in the same vessel. All NMR experiments were routinely collected at 25 °C on a 700-MHz Bruker Avance HDIII spectrometer equipped with triple resonance cryoprobe. […] Backbone assignments were made from 3D HNCACB, HNCOCACB, HNCO and HNCACO experiments. Spectra were processed using NMRPipe (ref. [43]) and typically Fourier-transformed after applying Lorentz-to-Gauss window functions in the direct dimension and cosine bells in the indirect dimensions. NMR data were analysed using SPARKY (Goddard, T.D. and Kneller, D.G., University of California, San Francisco). Assignments of the mutant RXFP1(1–72) proteins were determined from the assignments of wild-type RXFP1(1–72).
^15N{^1H}-NOE experiments[45] (2,048 × 256 data points) were acquired with a saturation pulse of 4 s and an additional relaxation delay of 5 s. Sample conditions were 150 μM RXFP(1–72) or mutants either without or with 450 μM H2 relaxin. Binding to Mn^2+-DTPA-(A)-H2 to RXFP1(1–72) and mutants was monitored by recording 2D ^1H-^15N HSQC (2,048 × 256 data points) for 0.2 μM Mn^2+-DTPA-(A)-H2 against 50 μM RXFP1(1–72). H2 relaxin and its truncates such as A-chain (9–24), H2/I5 chimera and Phe23Ala A-chain mutant H2 were titrated into a complex of 50 μM RXFP1(1–72) and 0.2 μM Mn^2+-DTPA-(A)-H2 with increasing concentrations ranging from 5 to 50 μM.

For “H2 relaxin: two-chain 6-kDa peptide hormone structurally related to insulin; recombinant human gene-2 H2 relaxin provided by Corthera”, the “loss in H2 relaxin binding” value (RXFP1 F50A) was “tenfold”, the “decrease in H2 relaxin affinity” value (RXFP1 C40A^ins) was “sixfold” and the “competition with Mn2+-DTPA-(A)-H2 for RXFP1(1–72) (peak intensities, chemical shifts)” value (RXFP1(1–72)) was “reappearance of the broadened peaks”.
